One assay concerns the target T1, GALR2 (Homo sapiens, UniProt O43603).
T1 sequence (O43603 1-387): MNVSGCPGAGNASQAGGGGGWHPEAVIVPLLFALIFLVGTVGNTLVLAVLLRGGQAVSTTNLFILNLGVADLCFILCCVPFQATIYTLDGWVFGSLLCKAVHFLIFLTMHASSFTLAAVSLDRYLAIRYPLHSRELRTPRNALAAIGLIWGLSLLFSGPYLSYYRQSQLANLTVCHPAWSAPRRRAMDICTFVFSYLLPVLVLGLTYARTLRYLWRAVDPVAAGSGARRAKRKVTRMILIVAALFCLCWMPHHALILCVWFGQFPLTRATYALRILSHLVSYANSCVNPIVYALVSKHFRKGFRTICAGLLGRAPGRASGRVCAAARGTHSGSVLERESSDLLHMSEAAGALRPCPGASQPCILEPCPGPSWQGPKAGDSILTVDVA
Nature of the assay: Radioligand binding, [125I]galanin displacement on CHO GalR2 membranes. More on the design: expressed in transfected cells; host or cells: CHO (Flp-In, pcDNA5/FRT). Conditions: recombinant GalR2 membranes, FIG. 3. On the procedure:
Cell membrane homogenates (4 μg protein—from CHO cells expressing the GalR2 receptor) were incubated for 120 minutes at 22° C. with 0.05 nM [^125I] galanin in the absence or presence of test compound in a buffer containing 25 mM Tris-HCl (pH 7.4, 10 mM MgCl2 and 0.5% BSA. Non-specific binding was determined in the presence of 1 μM porcine galanin. Following incubation, samples were filtered rapidly under vacuum through glass fiber filters (GF/B, Packard) pre-soaked with 0.3% PEI and rinsed several times with ice cold 50 mM Tris-HCl using a 96 sample cell harvester (Unifilter, Packard). The filters are dried then counted for radioactivity in a scintillation counter (Topcount, Packard) using a scintillation cocktail (Microscint 0), Packard). The results are expressed as a percent inhibition of the control radioligand specific binding. The standard reference compound is porcine galanin which is tested in each experiment at several concentrations to obtain a competition curve from which its IC50 is generated.
Briefly, cell overexpressing recombinant GalR2 were used to for crude membrane preparations. Competition style binding assays were then used to monitor displacement of [125I]-Galanin using a range of concentrations of Gal-FC fusion. After a period of incubation data were expressed relative the maximum specific Galanin bound.

A further assay concerns the target T2, rat GalR2 (Rattus norvegicus, UniProt O08726).
T2 sequence (O08726 1-372): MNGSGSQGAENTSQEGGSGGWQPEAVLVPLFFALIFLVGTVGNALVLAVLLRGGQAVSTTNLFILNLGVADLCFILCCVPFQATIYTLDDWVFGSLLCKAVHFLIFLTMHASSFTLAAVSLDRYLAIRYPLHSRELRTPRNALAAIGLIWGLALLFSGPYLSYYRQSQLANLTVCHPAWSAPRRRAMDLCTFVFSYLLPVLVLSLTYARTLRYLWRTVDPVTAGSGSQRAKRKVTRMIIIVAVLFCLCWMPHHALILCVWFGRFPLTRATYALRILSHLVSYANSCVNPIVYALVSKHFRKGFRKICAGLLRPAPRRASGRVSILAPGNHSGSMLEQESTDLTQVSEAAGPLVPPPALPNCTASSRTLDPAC
Nature of the assay: Calcium assay at orthologue receptor. Particulars: Table 8; Calcium assays; mean +/− standard deviation. In kind it is cell-based. From the text:
These species were chosen as they represent potential downstream in vivo models to be used. […] Calcium imaging was used to define receptor activity.

With “Gal2-30FC: galanin 2-30, AEAAAKEAAAKA linker, human IgG1 FC; SEQ ID NO: 28”, in the assay with GALR2, the “pIC50, displacement of [125I]-Galanin binding” value is 7.55. For “Gal2-13FC: galanin 2-13, AEAAAKEAAAKA linker, human IgG1 FC; SEQ ID NO: 7”, the “Rat GalR2 activity” value with rat GalR2 is recorded as 6.5 +/− 0.1.
